Reference: article PMC8015186

Tests used:
[1] = target: TraWF in the BACTH-TM vectors (E. coli (F-plasmid)) (UniProt P18472); assay: two-hybrid
[2] = target: TraBN with T18 or T25 at its N-terminus (BACTH) (Neisseria gonorrhoeae MS11) (UniProt Q5EPB9); assay: two-hybrid

Substance	β-galactosidase signal over background (times above the background level) [1]	β-galactosidase signal over background (times above the background level) [2]
TraVF in the BACTH-TM vectors (from UniProt P41069 19-171) (natural protein)	8	
TrbCN in the BACTH-TM vectors (natural protein)		4
